The text below walks through data of patent publication US20240174744A1 (SCIRHOM, published 2024).

Assay [1] deals with T1, dog iRhom2 full length wild type, C-terminally tagged with 3 consecutive copies of the T7 epitope (dog, UniProt Q00M95 1-827).
T1 construct: whole, on cells; also called Dog-iR2-FL-WT-T7
T1 sequence: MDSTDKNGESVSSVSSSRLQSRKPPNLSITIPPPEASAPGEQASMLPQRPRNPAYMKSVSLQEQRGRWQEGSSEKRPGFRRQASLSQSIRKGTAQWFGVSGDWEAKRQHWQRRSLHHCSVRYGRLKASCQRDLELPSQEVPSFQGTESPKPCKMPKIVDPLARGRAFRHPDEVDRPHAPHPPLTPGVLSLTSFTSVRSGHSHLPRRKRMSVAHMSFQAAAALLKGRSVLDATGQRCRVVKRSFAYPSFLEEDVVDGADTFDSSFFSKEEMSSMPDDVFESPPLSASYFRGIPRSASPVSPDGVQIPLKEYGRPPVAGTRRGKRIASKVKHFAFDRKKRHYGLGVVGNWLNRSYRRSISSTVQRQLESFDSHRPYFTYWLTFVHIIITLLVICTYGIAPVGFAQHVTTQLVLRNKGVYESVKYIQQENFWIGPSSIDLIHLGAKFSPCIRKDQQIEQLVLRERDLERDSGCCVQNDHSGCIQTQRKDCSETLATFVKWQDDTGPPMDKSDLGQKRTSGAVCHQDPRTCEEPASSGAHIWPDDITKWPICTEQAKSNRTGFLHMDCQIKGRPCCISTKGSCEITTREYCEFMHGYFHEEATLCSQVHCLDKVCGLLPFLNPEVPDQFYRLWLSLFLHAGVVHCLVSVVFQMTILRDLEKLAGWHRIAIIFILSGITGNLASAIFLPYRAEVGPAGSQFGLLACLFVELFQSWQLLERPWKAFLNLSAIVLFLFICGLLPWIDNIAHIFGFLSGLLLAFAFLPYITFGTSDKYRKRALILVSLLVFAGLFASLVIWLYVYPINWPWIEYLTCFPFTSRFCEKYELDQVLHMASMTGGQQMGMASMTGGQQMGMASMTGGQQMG
Description: FACS on MEF-DKO-iR2 Dog cells, 3 µg/ml. Here is the method:
In brief, immortalized MEF-DKO-EV control cells, MEF-DKO-rhesus-iR2-FL-WT-T7 cells, MEF-DKO-cyno-iR2-FL-WT-T7 cells, MEF-DKO-dog-iR2-FL-WT-T7 cells and MEF-DKO-rabbit-iR2-FL-WT-T7 cells, as well as their respective iRhom1 counterparts, were harvested with 10 mM EDTA in PBS, washed and resuspended in FACS buffer (PBS, 3% FBS, 0.05% sodium azide), and seeded in Nunc U-bottom 96-well plates (Thermo Fisher Scientific, USA) at approximately 3×10⁵ cells per well. To pellet cells and remove supernatants, the plates were centrifuged at 1,500 rpm and 4° C. for 3 minutes. For primary staining, cells were resuspended in 100 μl per well of either FACS buffer alone (controls), mouse monoclonal anti-T7 IgG (Merck Millipore, USA) at 3 μg/ml FACS buffer or the antibodies of the present disclosure also at 3 μg/ml FACS buffer and incubated on ice for 1 hour. Afterwards, plates were centrifuged at 1,500 rpm and 4° C. for 3 minutes and washed twice with 200 μl per well of FACS buffer. For secondary staining, cells were spun down and resuspended in 100 μl per well of PE-conjugated goat anti-mouse IgG F(ab′)2 detection fragment (Dianova, Germany) diluted 1:100 in FACS buffer. Protected from light, the cell suspensions were incubated on ice for 1 hour. […] Finally, cells were resuspended in 150 μl per well of FACS buffer and analyzed using a BD Accuri™ C6 Plus flow cytometer (Becton Dickinson, Germany).

Assay [2] has as its target T2, human iRhom1, endogenously expressed on RH-30 cells (human, UniProt Q96CC6 1-855).
T2 construct: RH-30 cells are described as endogenously negative for iRhom2 but endogenously expressing iRhom1; also called NP_071895.3
T2 sequence: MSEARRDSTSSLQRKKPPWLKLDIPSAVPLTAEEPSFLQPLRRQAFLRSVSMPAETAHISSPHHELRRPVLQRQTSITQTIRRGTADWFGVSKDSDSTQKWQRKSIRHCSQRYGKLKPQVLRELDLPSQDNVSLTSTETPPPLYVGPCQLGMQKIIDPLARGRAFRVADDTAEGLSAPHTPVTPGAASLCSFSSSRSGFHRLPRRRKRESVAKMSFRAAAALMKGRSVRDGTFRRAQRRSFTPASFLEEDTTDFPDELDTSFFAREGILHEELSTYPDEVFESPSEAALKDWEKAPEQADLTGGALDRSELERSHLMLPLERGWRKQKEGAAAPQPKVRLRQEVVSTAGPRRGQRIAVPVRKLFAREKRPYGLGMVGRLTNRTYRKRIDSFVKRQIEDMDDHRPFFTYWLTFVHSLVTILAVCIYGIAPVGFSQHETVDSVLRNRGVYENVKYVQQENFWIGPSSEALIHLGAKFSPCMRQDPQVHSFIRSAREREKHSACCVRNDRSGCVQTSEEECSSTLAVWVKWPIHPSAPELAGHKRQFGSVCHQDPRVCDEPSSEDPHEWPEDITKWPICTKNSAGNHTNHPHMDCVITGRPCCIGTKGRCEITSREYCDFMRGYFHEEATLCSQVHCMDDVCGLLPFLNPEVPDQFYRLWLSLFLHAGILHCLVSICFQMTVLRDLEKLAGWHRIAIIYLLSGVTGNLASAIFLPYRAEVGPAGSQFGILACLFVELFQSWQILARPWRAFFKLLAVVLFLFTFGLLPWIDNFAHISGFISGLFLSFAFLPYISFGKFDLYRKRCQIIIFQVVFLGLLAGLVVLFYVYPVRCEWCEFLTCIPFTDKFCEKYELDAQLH
The assay can be described thus: FACS on RH-30 cells (iRhom1-positive, not iRhom2-positive).

B1: antibody 16 (antibody, V domains shown)
VH: QVTLKESGPGILQPSQTLSLTCSFSGFSLSTFALGVGWIRQPSGRGLEWLAHIWWDDDKYYNPALKSRLTISKDTSKNHVFLKIANVDTADTATYYCARITTYYYGMDYWGQGTSVTVSS
VL: DIVLSQSPATLSVTPGDSVSLFCRASQSIGNHLHWYQQESHASPRLLIKYASQSISGIPSRFSGSGSGTDFTLSINSVETEDFGMYFCQQSYNWPLTFGAGTKLELK
notes: Mouse IgG, kappa light chain; also called clone #16; m16
As for B1, the binding result in assay [1] is given as “binds”; in assay [2], “no binding (tested: 3 µg/ml)”.
